# Test results taken from paper doi:10.1101/2025.04.29.651185.
# How the values were obtained:
# [1] = target: proteorhodopsin from the marine SAG AG-319-B05 Pseudothioglobus (PsPR) (Pseudothioglobus sp. (SAG AG-319-B05)); test: cryo-EM structure
# [2] = target: flotillin-associated rhodopsin from the marine SAG AG-319-B05 Pseudothioglobus (PsFAR) (Pseudothioglobus sp. (SAG AG-319-B05)); test: cryo-EM structure
Substance,stoichiometry N [1],stoichiometry N [2]
proteorhodopsin from the marine SAG AG-319-B05 Pseudothioglobus (PsPR) (natural protein),5,
flotillin-associated rhodopsin from the marine SAG AG-319-B05 Pseudothioglobus (PsFAR) (natural protein),,5
